From patent US20240294595A1, “GLYCOPEPTIDES AND USES THEREOF” (Arizona Board of Regents on Behalf of the University of …, priority 2013, published 2024) come the findings set out here.

Where no end group is shown, it is not given here. [ ]: non-standard residue; d: D form. The star is where a group is joined. βGlc = OC[C@H]1O[C@@H](*)[C@H](O)[C@@H](O)[C@@H]1O; Nle = CCCC[C@H](N)C(=O)O

The target in the assay is human PAC1 receptor (PAC1-CHO clonal cell line) (human), P41586. The assay can be described thus: cell-based or functional assay.
human PAC1 receptor (PAC1-CHO clonal cell line) (human), P41586, sequence (P41586 21-468): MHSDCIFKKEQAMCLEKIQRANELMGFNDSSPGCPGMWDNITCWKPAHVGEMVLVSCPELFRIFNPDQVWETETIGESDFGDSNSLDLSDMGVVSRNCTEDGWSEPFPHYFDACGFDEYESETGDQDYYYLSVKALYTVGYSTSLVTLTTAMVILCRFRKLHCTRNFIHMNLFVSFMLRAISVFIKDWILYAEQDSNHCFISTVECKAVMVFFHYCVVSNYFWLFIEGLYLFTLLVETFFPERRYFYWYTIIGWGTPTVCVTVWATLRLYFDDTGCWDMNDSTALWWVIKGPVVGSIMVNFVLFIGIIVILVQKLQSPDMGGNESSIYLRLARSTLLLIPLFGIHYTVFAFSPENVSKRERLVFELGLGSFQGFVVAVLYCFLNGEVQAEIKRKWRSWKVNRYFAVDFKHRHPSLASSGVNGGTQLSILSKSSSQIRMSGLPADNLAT

B1: PACAP1-27 (peptide)
peptide: HSDGIFTDSYSRYRKQMAVKKYLAAVL
modifications: ends and bridges not checked
For the molecule B1, the EMax (agonist) worked out at 100%.

B2: PACAP6-38 (peptide)
peptide: FTDSYSRYRKQMAVKKYLAAVLGKRYKQRVKNK
modifications: ends and bridges not checked
Turning to B2, the antagonist potency, variable concentration mode versus 5 nM PACAP1-27 (calcium flux, FLIPR) was greater than 333 nM and the pA2 (Gaddum/Schild EC50 shift model) was found to be 201 nM.

B3: Hs…Ñ…-Ser(Glc) (peptide)
peptide: HSDGIFADSYSRYRKQXAVKKYLAAVLS
modifications: here or on the partner: D-Serine at 2 (s); L-Nor-Leucine at 17 (Ñ, written X in letters); Ser 28 = L-Ser(β-D-Glc)
As to B3, the EC50 (agonist) was greater than 250 nM and the EMax (agonist) is -71%.

B4: Hs…Ñ…-Ser(Glc) (peptide)
peptide: HSDGIFTDSYSRYRKQXAVKKYLAAVLS
modifications: here or on the partner: D-Serine at 2 (s); L-Nor-Leucine at 17 (Ñ, written X in letters); Ser 28 = L-Ser(β-D-Glc)
Turning to B4, the EC50 (agonist) was determined as 25.5 nM and the EMax (agonist) is 85%.

B5: Hs…Ñ…-Ser(Glc)-L (peptide)
peptide: H[dS]DGIFTDSYSRYRKQ[Nle]AVKKYLAALS(βGlc)L-NH2
modifications: ends and bridges not checked
On to B5, for which the EC50 (agonist) was greater than 250 nM and the EMax (agonist) was -79%.

B6: …-Ser(Mel) (peptide)
peptide: HSDGIFTDSYSRYRKQLAVKKYLAAVLS(melibiose)-NH2
As to B6, the EC50 (agonist) was determined as 0.57 nM and the EMax (agonist) came out at 99%.

B7: PACAP1-27-S-G (peptide)
peptide: HSDGIFTDSYSRYRKQMAVKKYLAAVLS
modifications: here or on the partner: added C-terminal serine carries glucose (serine glucoside)
For the molecule B7, the normalized efficacy (calcium flux, FLIPR; PACAP1-27 = 100%) is 102% and the potency of PAC1 activation (calcium flux, FLIPR, agonist mode, PAC1-CHO cells) was found to be 5.68 nM.

B8: Hs…Ñ…-Ser(Glc) (peptide)
peptide: HSDGIFTDSYSRYRKQXAVKKYLAAVS
modifications: here or on the partner: D-Serine at 2 (s); L-Nor-Leucine at 17 (Ñ, written X in letters); Ser 27 = L-Ser(β-D-Glc)
Regarding B8, the EC50 (agonist) amounted to 54.5 nM and the EMax (agonist) came to 86%.
